Assay results reported in patent US11433099B2, “Immunotherapy with B*08 restricted peptides and combination of peptides against cancers and related methods” (Immatics Biotechnologies GmbH, priority 2018, dated 2022).

What follows are substances tested against HLA-B*08:01 (Homo sapiens, UniProt P01889) (assay: MHC binding assay (UV-ligand exchange, beta2m ELISA)). Conditions: MHC class I binding score; binding to HLA-B*08:01 ranged by peptide exchange yield (UV-ligand exchange, β2m ELISA).
Description: Candidate peptides for T cell based therapies according to the present invention were further tested for their MHC binding capacity (affinity). The individual peptide-MHC complexes were produced by UV-ligand exchange, where a UV-sensitive peptide is cleaved upon UV-irradiation and exchanged with the peptide of interest as analyzed. Only peptide candidates that can effectively bind and stabilize the peptide-receptive MHC molecules prevent dissociation of the MHC complexes. To determine the yield of the exchange reaction, an ELISA was performed based on the detection of the light chain (β2m) of stabilized MHC complexes. The assay was performed as generally described in Rodenko et al. (Rodenko et al., 2006).
96 well MAXISorp plates (NUNC) were coated over night with 2 ug/ml streptavidin in PBS at room temperature, washed 4× and blocked for 1 h at 37° C. in 2% BSA containing blocking buffer. Refolded HLA-A*02:01/MLA-001 monomers served as standards, covering the range of 15-500 ng/ml. Peptide-MHC monomers of the UV-exchange reaction were diluted 100-fold in blocking buffer. Samples were incubated for 1 h at 37° C., washed four times, incubated with 2 ug/ml HRP conjugated anti-β2m for 1 h at 37° C., washed again and detected with TMB solution that is stopped with […]. Absorption was measured at 450 nm. Candidate peptides that show a high exchange yield (preferably higher than 50%, most preferred higher than 75%) are generally preferred for a generation and production of antibodies or fragments thereof, and/or T cell receptors or fragments thereof, as they show sufficient avidity to the MHC molecules and prevent dissociation of the MHC complexes.

| Substance | Peptide exchange |
| --- | --- |
| 2 (QIMPKAGL; listed as Homo sapiens) [compound 2] | +++ (50% = +++) |
| 4 (QVMPKTGL; listed as Homo sapiens) [compound 4] | ++ (20% = ++) |
| 6 (NRQKRFVL; listed as Homo sapiens) [compound 6] | ++ (20% = ++) |
| 14 (ELILKRCL; listed as Homo sapiens) [compound 14] | +++ (50% = +++) |
| 15 (LLKKIEHA; listed as Homo sapiens) [compound 15] | ++ (20% = ++) |
| 16 (NRKPRTPF; listed as Homo sapiens) [compound 16] | ++ (20% = ++) |
| 23 (DIKKTNESL; listed as Homo sapiens) [compound 23] | ++ (20% = ++) |
| 24 (DLVLKRCL; listed as Homo sapiens) [compound 24] | ++++ (75% = ++++) |
| 28 (DPKSRLKSL; listed as Homo sapiens) [compound 28] | ++ (20% = ++) |
| 32 (NPYLKLVL; listed as Homo sapiens) [compound 32] | ++ (20% = ++) |
| 39 (DAKSKIEQI; listed as Homo sapiens) [compound 39] | ++ (20% = ++) |
| 43 (DLKKLVDSL; listed as Homo sapiens) [compound 43] | +++ (50% = +++) |
| 46 (DLRNKIIAA; listed as Homo sapiens) [compound 46] | +++ (50% = +++) |
| 50 (TLRLLVAAL; listed as Homo sapiens) [compound 50] | +++ (50% = +++) |
| 51 (ERRVKVSSL; listed as Homo sapiens) [compound 51] | +++ (50% = +++) |
| 52 (ELILKHSL; listed as Homo sapiens) [compound 52] | +++ (50% = +++) |
| 54 (DLSRRDVSL; listed as Homo sapiens) [compound 54] | ++ (20% = ++) |
| 56 (ILCGSRKMPL; listed as Homo sapiens) [compound 56] | ++ (20% = ++) |
| 59 (FDFRGKTKVF; listed as Homo sapiens) [compound 59] | ++ (20% = ++) |
| 61 (SIKKELVVL; listed as Homo sapiens) [compound 61] | ++ (20% = ++) |
| 65 (NLLMRNVL; listed as Homo sapiens) [compound 65] | ++ (20% = ++) |
| 70 (RPKGTPPL; listed as Homo sapiens) [compound 70] | ++ (20% = ++) |
| 73 (MFPARGVPL; listed as Homo sapiens) [compound 73] | ++ (20% = ++) |
| 81 (MYRKEQYL; listed as Homo sapiens) [compound 81] | ++ (20% = ++) |
| 84 (YITRQFVQF; listed as Homo sapiens) [compound 84] | ++ (20% = ++) |
| 87 (QILQHHVL; listed as Homo sapiens) [compound 87] | +++ (50% = +++) |

| Substance | Peptide exchange |
| --- | --- |
| 90 (TIGLGLHSL; listed as Homo sapiens) [compound 90] | ++ (20% = ++) |
| 92 (TLKAMVQAW; listed as Homo sapiens) [compound 92] | +++ (50% = +++) |
| 93 (LMKEKIQEM; listed as Homo sapiens) [compound 93] | +++ (50% = +++) |
| 94 (DQLLRHVM; listed as Homo sapiens) [compound 94] | +++ (50% = +++) |
| 96 (RPAGVFEL; listed as Homo sapiens) [compound 96] | ++ (20% = ++) |
| 97 (EPVTKAEM; listed as Homo sapiens) [compound 97] | +++ (50% = +++) |
| 98 (EPVNTNVVL; listed as Homo sapiens) [compound 98] | ++ (20% = ++) |
| 99 (NVKIRFLE; listed as Homo sapiens) [compound 99] | ++ (20% = ++) |
| 101 (FAFEKLIQF; listed as Homo sapiens) [compound 101] | +++ (50% = +++) |
| 103 (IANLRVKNI; listed as Homo sapiens) [compound 103] | +++ (50% = +++) |
| 105 (APLKMLALV; listed as Homo sapiens) [compound 105] | ++ (20% = ++) |
| 106 (HLHLLETSI; listed as Homo sapiens) [compound 106] | ++ (20% = ++) |
| 107 (LPKGLKDWQA; listed as Homo sapiens) [compound 107] | ++ (20% = ++) |
| 109 (IPASHPVLTL; listed as Homo sapiens) [compound 109] | ++ (20% = ++) |
| 112 (NALDPLSAL; listed as Homo sapiens) [compound 112] | ++ (20% = ++) |
| 113 (MEKGLASL; listed as Homo sapiens) [compound 113] | ++ (20% = ++) |
| 114 (PVKPKFYL; listed as Homo sapiens) [compound 114] | ++ (20% = ++) |
| 115 (MRILKRFLAC; listed as Homo sapiens) [compound 115] | ++ (20% = ++) |
| 116 (FTQNPRVQL; listed as Homo sapiens) [compound 116] | ++ (20% = ++) |
| 117 (VGPNGFKSL; listed as Homo sapiens) [compound 117] | ++ (20% = ++) |
| 118 (MAFVKHLL; listed as Homo sapiens) [compound 118] | +++ (50% = +++) |
| 119 (FQRVSSVSF; listed as Homo sapiens) [compound 119] | +++ (50% = +++) |
| 120 (AQRSEMVTL; listed as Homo sapiens) [compound 120] | ++ (20% = ++) |
| 122 (ESSAQPTAL; listed as Homo sapiens) [compound 122] | ++ (20% = ++) |
| 123 (SLLPFTLSF; listed as Homo sapiens) [compound 123] | ++ (20% = ++) |
| 124 (HSWTRTSV; listed as Homo sapiens) [compound 124] | +++ (50% = +++) |

Continued, values first:

| Peptide exchange | Substance |
| --- | --- |
| ++ (20% = ++) | 7 (AARLRPAL; listed as Homo sapiens) [compound 7] |
| +++ (50% = +++) | 12 (DFYLRSSAF; listed as Homo sapiens) [compound 12] |
| +++ (50% = +++) | 17 (LLILKTVL; listed as Homo sapiens) [compound 17] |
| ++ (20% = ++) | 26 (DARCKLAEL; listed as Homo sapiens) [compound 26] |
| ++ (20% = ++) | 30 (DLQKKAQAL; listed as Homo sapiens) [compound 30] |
| +++ (50% = +++) | 44 (HLTNRVLSL; listed as Homo sapiens) [compound 44] |
| ++ (20% = ++) | 53 (DLRKLKRQL; listed as Homo sapiens) [compound 53] |
| ++ (20% = ++) | 55 (VLLSRRTAL; listed as Homo sapiens) [compound 55] |
| ++ (20% = ++) | 64 (FILGREAGAL; listed as Homo sapiens) [compound 64] |
| ++ (20% = ++) | 67 (DMNTKRAIHTL; listed as Homo sapiens) [compound 67] |
| ++ (20% = ++) | 69 (ELARQRLL; listed as Homo sapiens) [compound 69] |
| +++ (50% = +++) | 72 (LPLAHHIQL; listed as Homo sapiens) [compound 72] |
| +++ (50% = +++) | 77 (LPKLPVPPL; listed as Homo sapiens) [compound 77] |
| ++ (20% = ++) | 79 (GLARIYSF; listed as Homo sapiens) [compound 79] |
| ++ (20% = ++) | 85 (QKPRKKKL; listed as Homo sapiens) [compound 85] |
| ++ (20% = ++) | 88 (MLLCLSLEL; listed as Homo sapiens) [compound 88] |
| ++ (20% = ++) | 95 (SRNPRGFFL; listed as Homo sapiens) [compound 95] |
| ++ (20% = ++) | 100 (VLLMGPLHL; listed as Homo sapiens) [compound 100] |
| +++ (50% = +++) | 102 (IMKKIRESY; listed as Homo sapiens) [compound 102] |
| ++ (20% = ++) | 104 (FAFGEPREL; listed as Homo sapiens) [compound 104] |
| ++ (20% = ++) | 108 (RSYYHPTNL; listed as Homo sapiens) [compound 108] |
| +++ (50% = +++) | 110 (DAMTKHTL; listed as Homo sapiens) [compound 110] |
| ++ (20% = ++) | 111 (GAGLRITAPL; listed as Homo sapiens) [compound 111] |
| ++ (20% = ++) | 121 (YSQLSISL; listed as Homo sapiens) [compound 121] |
